# Assay results from patent EP1207201A1, “NOVEL G PROTEIN-COUPLED RECEPTOR PROTEIN AND DNA THEREOF” (Takeda Chemical Industries, Ltd., priority 1999, dated 2001).
# Where no end group is shown, it is not given here.
# Molecular target: T1, AQ27 (Homo sapiens, UniProt Q96P65)
# T1 construct: expressed in transfected cells; host or cells: CHO cells
# T1 sequence (Q96P65 1-431): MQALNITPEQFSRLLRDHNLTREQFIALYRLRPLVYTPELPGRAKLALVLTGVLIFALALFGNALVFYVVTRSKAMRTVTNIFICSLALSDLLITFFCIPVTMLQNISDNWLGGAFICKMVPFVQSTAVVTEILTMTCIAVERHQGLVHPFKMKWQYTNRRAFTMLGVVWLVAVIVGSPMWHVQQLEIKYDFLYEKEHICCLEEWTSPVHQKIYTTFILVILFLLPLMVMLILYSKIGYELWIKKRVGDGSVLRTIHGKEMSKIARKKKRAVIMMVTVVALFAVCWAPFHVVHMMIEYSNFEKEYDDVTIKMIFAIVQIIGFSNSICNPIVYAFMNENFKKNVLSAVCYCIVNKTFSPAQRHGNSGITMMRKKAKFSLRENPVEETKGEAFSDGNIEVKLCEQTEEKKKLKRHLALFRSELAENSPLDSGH
# Test: Cytosensor cell activation (increase of acidification rate) in AQ27-expressing CHO cells versus mock cells
# Assay type: cell-based
# Conditions: 10 µM, exposure 7 minutes and 2 seconds, AQ27-expressing CHO cells compared with mock cells
# Method: The vertical axis represents a cycle of measurement. "•" denotes the reactivity of receptor-expressed CHO cells and "○" denotes the reactivity of mock cells.
# The AQ27-expressing CHO cells and mock cells were inoculated in a capsule for Cytosensor at a concentration of 2.7 x 10^5 cells/capsule, respectively, incuvated overnight, and mounted onto Cytosensor(Molecular Device). After the acidification rare became stable, the cells were exposed to 10 µM Enkephalin-Arg-Phe amide (Bachem, H-2835) for 7 minutes and 2 seconds. The cell activation was measured using the increasing rate of the acidification rate as index.
substance,measurement,value
"Met-Enkephalin-Arg-Phe amide (YGGFMRF-NH2) [peptide amide purchased from Bachem, H-2835]",cell activation measured using the increasing rate of the acidification rate as index,specifically activates the AQ27-expressing CHO cells
